# Laboratory results published in the supplement of paper PMC9732359.
# ± gives the uncertainty stated by the source.
# Test: protein stability index of a GFP-peptide fusion (yeast GPS) (PSI 1-4); higher = more stable; sorted into four equal gates, so the index is relative within each strain
# Settings: pdr5∆
# Procedure, shortened: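 The protein stability index of a peptide was calculated by multiplying its read frequency in each gate by that gate's number and adding the products. The peptides were tiled 17-residue stretches of yeast proteins, fused downstream of GFP on a Cherry-expressing plasmid and carried in yeast as a pooled library. Mid-log cultures in leucine-free medium were sorted into four equal gates by GFP/Cherry ratio, and each gate's plasmids were PCR-amplified and Illumina-sequenced.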
row,Sequence,protein stability index
1,TNSPQISVTRQVVLGGT [SMC2],3 ± 0.075

# Same assay, conditions: san1∆
row,Sequence,protein stability index
1,STVAKFLARVIKEKFDE [IRR1],3.36 ± 0.22
2,STYLPKLISAFDDLEVE [RRP42],2.58 ± 0.05
3,SVILSVISMFVLPIFTT [YML031W/NDC1],1.3 ± 0.092
4,SVINVSAQRDRRYRKRV [RPS17A],1.71 ± 0.1
5,SVISGNLSLYEATAASH [CSN12],2.8 ± 0.069
6,SVKGKVVIDAFRLIDTG [RPN11],1.92 ± 0.15
7,SVLDEQEQYQTNTFEGS [SNU114],3.26 ± 0.11
8,SVPEGTIVSNVEEKPGD [RPL2A],3.39 ± 0.059
9,SVSFKVFLLLQAYFSRL [BRR2],1.22 ± 0.088
10,SVSGSPRPSYSSRPNVN [YMR129W/POM152],2.45 ± 0.066
11,SVVAKQLLNGQKIVVVR [RPL16A],1.62 ± 0.11
12,SVVRVLVHTQIRKTPLA [RPL3],1.11 ± 0.14
13,SWVQPRIISGDQITKMK [RPN9],2.94 ± 0.14
14,SYAGKQVVGPFHTSFSA [SMC4],3.08 ± 0.056
15,SYDCTGVNELAPIPKGR [POP1],3.01 ± 0.055
16,SYKMNSSAADITMESVH [PRP8],3.21 ± 0.095
17,SYLSNSLDTSASTINGA [YML103C/NUP188],1.76 ± 0.065
18,SYNLEYIESKFCPGEIV [YMR129W/POM152],3.12 ± 0.14
19,SYNNTGISDDENDEEDI [RRP4],2.84 ± 0.086
20,SYVEPVLVASAKGLQTV [RPL31A],2.23 ± 0.065
21,TAAEKKERLTKEAAAVA [RPL8A],3.13 ± 0.096
22,TAAFTAMICEAKGLIEN [YJR042W/NUP85],2.72 ± 0.068
23,TADAEILINTARIHAQN [PRE9],2.83 ± 0.099
24,TADKIRIHAKNFEAALF [GAL11],1.51 ± 0.11
25,TAEERVGRRAANLRVLN [RPL15A],2.75 ± 0.14
26,TAETNNKVHETSSKSSS [YDL088C/ASM4],2.84 ± 0.039

row,Sequence,protein stability index
1,TAFQTQRTAQDRVQQDS [YML031W/NDC1],3.26 ± 0.076
2,TAKKTNRSAYDSKNTPN [YDL088C/ASM4],2.94 ± 0.052
3,TALEHKVVNGNSADAAY [FAS2],3.05 ± 0.063
4,TANDQYSSILGNSFNKS [YCG1],3.31 ± 0.038
5,TANDRQINNVHLIPNEI [RPN4],2.92 ± 0.052
6,TANTGTIGKRRTTTNTT [TAF14],3.21 ± 0.045
7,TCRKHTQHKVTQYKAGK [RPL42A],2.62 ± 0.07
8,TDEALFENVKLLAEYDN [MED4],3.08 ± 0.088
9,TDENTPSADGADKKDDS [ITC1],3.36 ± 0.064
10,TDLGKDIPFFPSSEKPN [SSN2],2.57 ± 0.11
11,TDPKELYNNAHVYARDL [RPC40],2.93 ± 0.13
12,TDSDFAKYHAKLNKKLQ [SRP68],2.84 ± 0.043
13,TDVKLTLPQPRLNKLNS [SMD1],2.1 ± 0.071
14,TEDGWIYHGNHDVGELF [PRE2],2 ± 0.074
15,TEDIRIRAQNFKSALAN [RRP6],2.56 ± 0.1
16,TEGHKGHEELKRRIEEE [ISW2],3.11 ± 0.068
17,TEHVRQNAKLLANLIRD [RRP6],2.39 ± 0.14
18,TEIENYLLENNQVGTDE [YDL116W/NUP84],3.39 ± 0.072
19,TEIISTLSNGLIASHYG [BRR2],2.42 ± 0.1
20,TEISGLKNVNKRAFENF [SMC3],2.7 ± 0.096
21,TEKEPVPAVVDDPLENM [SNF6],2.69 ± 0.082
22,TELTHHLLPRNEWIKAQ [QCR7],2.04 ± 0.12
23,TESPLKTVDSSIQPIES [SSN2],2.91 ± 0.053
24,TETFEKPQRTNTLRMKH [RPB2],3.16 ± 0.1
25,TEYRGTLVSTDNYFNLQ [SMX3],2.4 ± 0.059
26,TFGINLIYVNPFMLQWG [FAS1],2.46 ± 0.074

row,Sequence,protein stability index
1,TFGKKADVTSNIDSSAQ [YOR098C/NUP1],1.91 ± 0.11
2,TFIKDCLFTKCLEDPEK [POP4],1.57 ± 0.18
3,TFIYFAYFLIIVPVIST [COB],1.16 ± 0.087
4,TFLPPLLLKLASPHASV [ECM29],1.66 ± 0.061
5,TGAGVSTSLGIPDFRSS [SIR2],2.1 ± 0.19
6,TGAPPYYYNTKIYKLEN [YMR129W/POM152],2.5 ± 0.11
7,TGDADEPELRVLSTEEI [RPO21],3.49 ± 0.064
8,TGLKLYSRITLIIDDPS [RPP1],2.17 ± 0.062
9,TGNGTTTTSNTSGTNIA [YOR098C/NUP1],2.46 ± 0.056
10,TGNTTSKSAFSFGTANT [YOR098C/NUP1],1.95 ± 0.076
11,TGQNFLTSNISSLVRSC [REC8],2.54 ± 0.099
12,TGRMRYLKHVSRRFKNG [RPL37A],3.44 ± 0.048
13,TGTARLNSMPNNVNEYS [YJL039C/NUP192],3.01 ± 0.052
14,THKVTDIYSHEYKVITS [YMR129W/POM152],2.38 ± 0.089
15,THQSPPPPPQQSQPIAN [SNF5],2.98 ± 0.04
16,THSYNFMRQNLEWNMAN [RPC82],1.74 ± 0.07
17,TIDWVEAGLQLCRQGHN [PRP8],2.08 ± 0.091
18,TIETFNEAALVVNITHH [RPB5],1.64 ± 0.16
19,TIFKSGEIDFIKNIGKS [YML103C/NUP188],1.92 ± 0.12
20,TIKISTNDDSIKNLTVQ [RGR1],2.9 ± 0.074
21,TISSLFVQLCEMGYLIQ [RPC82],1.61 ± 0.16
22,TITDLIEQGIPKHSYLS [SIR4],3.21 ± 0.073
23,TIVNDSNYDWLFQLLNA [RPN9],2.34 ± 0.078
24,TKCSTVVKASELDQFWQ [SRP14],2.04 ± 0.082
25,TKEKVNGASVPINLHPS [RPL26A],2.92 ± 0.07
26,TKESQPTIEEDLTRVYK [FAS2],3.2 ± 0.07

row,Sequence,protein stability index
1,TKFQTTDRESYPRLQDP [YCS4],3.13 ± 0.079
2,TKIGAKRIHSVRTRGGN [RPS8A],2.93 ± 0.088
3,TKIPQIGDKFASRHGQK [RPB2],2.77 ± 0.084
4,TKNGTPNPNNMKTVQSP [GAL11],2.77 ± 0.062
5,TKNLSILTSKVNAIKNE [DSN1],2.39 ± 0.11
6,TKPGVYYVPYSKLMPVL [RPC82],1.91 ± 0.067
7,TKSHNTVQSWLCDLFVN [NUT1],1.4 ± 0.09
8,TKSMVKIAEQYSKRIEE [RPN11],2.03 ± 0.1
9,TLAEVKAAGLTAAYART [RPL13A],1.5 ± 0.12
10,TLDKPNAEATKEEFSSA [CSE2],3.23 ± 0.064
11,TLDRNTAAETFKLFNKY [RPL8A],3.08 ± 0.082
12,TLELESFLEGSKALNSI [RGR1],3.13 ± 0.066
13,TLIKKKQDEKKSSELEL [SMC2],3.29 ± 0.047
14,TLKDYQIKGLQWMVSLF [SNF2],3.22 ± 0.078
15,TLKLRARQRGKLKKSEE [SRP68],3.36 ± 0.067
16,TLLARAVAHHTDCKFIR [RPT6],1.86 ± 0.14
17,TLLESNLCKIIEPFECV [RPN6],2.28 ± 0.12
18,TLLNFVSNNVLRRLEIL [ECM29],2.28 ± 0.19
19,TLQDIGFYQIKKIVDSK [YMR129W/POM152],2.89 ± 0.17
20,TLTELKDALSNSILSVR [SRB2],3.21 ± 0.049
21,TMEVKSFPILDQCVGQV [YMR129W/POM152],2.34 ± 0.13
22,TNAKLPNVDLVTALEVL [RGR1],2.44 ± 0.07
23,TNDRLNREAATKEVESN [DIS3],2.62 ± 0.12
24,TNRHTLALETVLIKMVK [SIR3],2.61 ± 0.069
25,TNSPQISVTRQVVLGGT [SMC2],3.03 ± 0.064

# Same assay, conditions: ubr1∆
row,Sequence,protein stability index
1,STVAKFLARVIKEKFDE [IRR1],2.16 ± 0.09
